Measurements: patent publication US11260100B2, “Compositions targeting the interaction domain between p27Kip1 and Brk and methods of use thereof to inhibit p27 Y phosphorylation and cdk4 activity” (The Research Foundation for the State University of New York, priority 2014, dated 2022)
Ends that are not written are not given here.

Assays:
metastatic breast cancer = metastatic breast cancer patients; cited from earlier work
[1] = biological target: T1, Brk phosphorylation of p27 (Homo sapiens, UniProt P46527+Q13882); experiment: In vitro Brk phosphorylation of p27 with competitor, pY88/pY74 immunoblot; assay type: biochemical; settings: increasing amounts of competitor
T1 construct: were incubated with p27 before the addition of full length Brk and ATP; We incubated full length p27 with Src or Brk in the presence of ATP; purchased SignalChem (GST-PTK6/Brk) or Invitrogen (His-PTK6/Brk); host or cells: p27 made in house in E. coli
Method: (§1) FIGS. 3A-3D: SH3:PxxP interaction is required for p27 Y88 phosphorylation. (FIG. 3A) p27 and Brk were incubated with ATP and with increasing concentrations of the PxxP competitor, F58-106, followed by immunoblot analysis with pY88, pY74 and p27 antibodies. Lane 5: +equimolar amount of F58-106 and p27, lane 6: ++2.5×F58-106, lane 7: +++5×F58-106, lane 8: ++++10×F58-106. (FIG. 3B) GST-Brk, p27 and F58-106 were incubated, immunoprecipitated with GST antibodies, followed by immunblot analysis with GST or p27 antibodies. (FIG. 3C) Increasing amounts of GST-SH3, GST-SH2 or GST peptides were incubated with p27, followed by immunoblot analysis with pY88, pY74, p27 and GST antibodies. Lanes 3, 5, 7: 2.5× competitor, lanes 4, 6, […]: 5× competitor. (FIG. 3D) GST-SH3, GST-SH2 or GST peptides were incubated with p27 or ΔK1/K3, followed by metal agarose chromatography and immunoblot analysis with GST and p27 antibodies. Loading control: GST peptides added to the reaction which are not representative of association.
FIGS. 8A-8G: Alt Brk (SEQ ID NO: 17) acts as an endogenous inhibitor of Brk. (FIG. 8A) Flag tagged WT p27 was incubated with increasing amount of Flag tagged Alt-Brk (lanes 5-7) in presence of equal amount of Brk. Lane 5: +equimolar Brk and Alt, lane 6: ++2.5×Alt, lane 7: +++5×Alt Immunoblot analysis was performed using Flag, pY88 and pY74 antibodies. (FIG. 8B) Alt-Brk expressing cells were plated on day 0. They were induced (+Tet) or uninduced (−Tet) on day 1 and cells were harvested on days 2, 3 and 4 Immunoblot analysis was performed using N-terminal Brk, C-terminal Brk, Rb, Ser780 pRb, Flag or Actin antibodies. (FIG. 8C) p27 was immunoprecipitated from induced (+) or un-induced (−) Alt Brk expressing cells and immunoblot analysis was performed with p27, pY88 and pY74 antibodies. (FIG. 8D) Alt Brk or TRE3G vector alone cells were treated with + or −Tet and cell counts were used to monitor proliferation. […] (FIG. 8F) p27 was immunoprecipitated from MCF7 cells that were either contact arrested (G0), asynchronous (A), or serum starved with 1% and 0% serum for 48 h. Immunoblot analysis was performed to probe for p27, pY88 and pY74. IgG and Mv1Lu lysates served as a negative control. (FIG. 8G) Expression of WT or mutant p27s was induced by adding Tetracycline to the culture media. p27 was immunoprecipitated from cell lysates and probed for p27, pY88 and pY74 Immunoprecipitation with IgG served as a negative control.
It appeared that the SH3:PxxP interaction was required for Y88 phosphorylation. […]
To directly verify this, we expressed a Flag-tagged Alt-Brk in bacteria and purified this 15 Kd protein (FIG. 8A). When p27 was incubated with Brk, Y88 and Y74 phosphorylation was detected by immunoblot analysis (FIG. 8A, lane 3). […]

GST-Brk = biological target: T2, GST-Brk (Homo sapiens, UniProt Q13882); experiment: GST immunoprecipitation of GST-Brk with p27 and/or F58-106; assay type: binding
T2 construct: this K1-containing peptide was sufficient to associate with full length Brk; purchased SignalChem
Method: as §1
We then performed the converse reaction, and increasing amounts of individual recombinant, GST-tagged pieces of Brk (GST-SH2, GST-SH3) or GST peptides were incubated with p27 before the addition of full length Brk and ATP. The reactions were probed by immunoblot analysis with pY88 and pY74 antibodies (FIG. 3C).

WT p27 = biological target: T3, WT p27 (Homo sapiens, UniProt P46527); experiment: Metal agarose chromatography of His-p27 with GST peptides; assay type: binding; settings: absence of ATP
T3 construct: made in house; host or cells: E. coli
Method: as §1
(§2) We incubated the GST, GST-SH3, or GST-SH2 peptides with His-tagged versions of p27 and the ΔK1/K3 mutant, isolated complexes by metal agarose chromatography and performed immunoblot analysis with GST antibodies (FIG. 3D). […] However, this binding was independent of the PxxP K1 site (FIG. 3D, lane 3). […]

ΔK1/K3 p27 = biological target: T4, ΔK1/K3 p27 (Homo sapiens, UniProt P46527, K189A/K190A/P188A/P191A/P91A/P92A/P94A/P95A); experiment: Metal agarose chromatography of His-ΔK1/K3 p27 with GST peptides; assay type: binding; settings: absence of ATP
T4 construct: made in house; host or cells: E. coli
Method: as §1, §2

Brk SH3 domain = biological target: T5, Brk SH3 domain (Homo sapiens, UniProt Q13882); experiment: Phage-ELISA of GST-PxxP peptides (K1, K2, K3) against SH3 phages; assay type: binding; settings: GST-fusion PxxP peptides
T5 construct: made in house; host or cells: phage supernatants
T5 sequence (Q13882 8-72 limits assumed): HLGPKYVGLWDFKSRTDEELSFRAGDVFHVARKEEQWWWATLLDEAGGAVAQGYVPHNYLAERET
Description: (§3) FIGS. 1A-1C: Brk binds to p27 with high affinity in vitro. (FIG. 1A) p27 sequence highlighting the proline tracts of the three putative SH3 domain recruitment sites (PxxP): K1 (90-96), K2 (114-117) and K3 (188-195) (SEQ ID NO: 1). Phage-ELISA-analysis of SFK SH3 interactions with p27 (FIG. 1B) or p27's PxxP motifs (FIG. 1C). Data shown is the mean of three independent experiments±standard deviation after normalization and subtraction of the background binding to GST. (FIG. 1C) Recombinantly produced GST-K1, (amino acids 85-102 of SEQ ID NO: 1), −K2, (amino acids 108-123 of SEQ ID NO: 1), −K3 (amino acids 182-197 of SEQ ID NO: 1), or GST was immobilized in 96-well plates and analyzed for binding of the phages with the Brk-, Frk-, Yes-, or Abl-SH3 domain.
The following materials and methods are provided to facilitate the practice of the present invention. • Antibodies. Mouse Anti-p27(Kip1), BD Biosciences 610242. Cdk4 (DCS-35), p27 (N-20), C-terminal Brk (C-18), Brk (D-6), N-terminal Brk (N-20), c-Src (SC-18), Cyclin D1 (H 295), ARHGDIA (A-20), Santa Cruz Biotechnology. Anti-beta galactosidase antibody is from RND systems (af6464). Phosphotyrosine (P-Tyr-100), Cell Signaling Technology. Cdk4 (C-term, Cat. No. AP7520b), Abgent. GST (PRB-112C), Covance. Flag (F3165), Actin (A2066), Sigma Aldrich. Phospho Brk (Tyr342), EMD Millipore. pY74, Y88 and Y89 phospho-specific antibodies were generated by immunization of rabbits with phosphor-specific p27 peptides (Invitrogen). Negative- and positive-affinity chromatography with non-phosphorylated and phosphorylated peptides respectively, were performed to purify the antibodies. The antibodies are specific only for Y88,Y89, Y74 phosphorylation respectively (FIG. 2B, data not shown). • Enzymes. Gst-PTK6/Brk, GST-Src (SignalChem), His-Abl (New England Biolabs), His-PTK6/Brk, His-Src (Invitrogen) were used according to manufacturer's specifications. […] Phage supernatants were generated and binding of SH3-phages to recombinantly produced His-tagged-p27 or GST-PxxP-peptides was analyzed as described (28). • Construction of mutants and peptides. […]

full-length p27 = biological target: T6, full-length p27 (Homo sapiens, UniProt P46527); experiment: Phage-ELISA of SFK SH3 domain interactions with p27; settings: phages carry many reiterated SH3 domains, which would enhance binding; read-out: Kd of interaction with full-length p27
T6 construct: made in house; host or cells: E. coli
Description: as §3
The following materials and methods are provided to facilitate the practice of the present invention. • Antibodies. Mouse Anti-p27(Kip1), BD Biosciences 610242. Cdk4 (DCS-35), p27 (N-20), C-terminal Brk (C-18), Brk (D-6), N-terminal Brk (N-20), c-Src (SC-18), Cyclin D1 (H 295), ARHGDIA (A-20), Santa Cruz Biotechnology. Anti-beta galactosidase antibody is from RND systems (af6464). Phosphotyrosine (P-Tyr-100), Cell Signaling Technology. […] Phage supernatants were generated and binding of SH3-phages to recombinantly produced His-tagged-p27 or GST-PxxP-peptides was analyzed as described (28). • Construction of mutants and peptides. […]

T1 sequence (Q13882 whole entry): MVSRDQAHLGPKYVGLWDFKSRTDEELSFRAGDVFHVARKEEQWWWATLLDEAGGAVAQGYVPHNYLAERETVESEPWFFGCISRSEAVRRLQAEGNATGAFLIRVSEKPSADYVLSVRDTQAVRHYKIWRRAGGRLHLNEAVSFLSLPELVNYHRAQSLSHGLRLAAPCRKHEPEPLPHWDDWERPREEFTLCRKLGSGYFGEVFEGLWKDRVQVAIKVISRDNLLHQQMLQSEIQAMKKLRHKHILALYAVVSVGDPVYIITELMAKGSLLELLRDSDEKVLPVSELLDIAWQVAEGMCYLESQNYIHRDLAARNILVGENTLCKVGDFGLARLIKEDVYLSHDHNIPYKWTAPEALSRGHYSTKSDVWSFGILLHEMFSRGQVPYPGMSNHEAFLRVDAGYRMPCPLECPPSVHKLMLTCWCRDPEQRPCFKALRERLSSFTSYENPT
T1 sequence (P46527 whole entry): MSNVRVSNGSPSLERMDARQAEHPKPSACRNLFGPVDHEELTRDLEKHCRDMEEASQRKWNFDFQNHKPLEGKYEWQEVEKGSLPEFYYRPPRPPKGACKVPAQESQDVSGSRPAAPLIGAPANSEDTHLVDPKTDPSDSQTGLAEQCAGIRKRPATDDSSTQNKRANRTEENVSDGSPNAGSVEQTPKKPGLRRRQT
T2 sequence (Q13882 whole entry): as the sequence (Q13882 whole entry) above
T4 sequence (P46527 whole entry P91A/P92A/P94A/P95A/P188A/K189A/K190A/P191A): as the sequence (P46527 whole entry) above, with P91A, P92A, P94A, P95A, P188A, K189A, K190A, P191A counted along it
T3 sequence (P46527 whole entry): as the sequence (P46527 whole entry) above
T6 sequence (P46527 whole entry, the tested form may be a part): as the sequence (P46527 whole entry) above

For `N#Cc1ccc(C(c2ccc(C#N)cc2)n2cncn2)cc1` [letrozole], the “median PFS” value (metastatic breast cancer) is given as 10.2 months.

For “F58-106: Flagged tagged K1-site containing peptide, p27 residues 58 to 106 (RKWNFDFQNHKPLEGKYEWQEVEKGSLPEFYYRPPRPPKGACKVPAQES; also: Flag tag, site not given here)”, the “p27 Y74 phosphorylation by Brk” value [1] was “only slightly reduced”, the “p27 Y88 phosphorylation by Brk” value [1] was “decreased” and the “association with GST-Brk” value (GST-Brk) was “interacted”.

For “GST-SH2: recombinant GST-tagged SH2 piece of Brk [reference compound]”, the “p27 Y74 phosphorylation by Brk” value [1] was “did not reduce”, the “p27 Y88 phosphorylation by Brk” value [1] was “did not reduce” and the “association with WT p27” value (WT p27) was “bound”. The “association with ΔK1/K3 p27” value (ΔK1/K3 p27) was “bound”.

With “K1: GST-fusion peptide, amino acids 85-102 of p27 (SEQ ID NO: 1) (PEFYYRPPRPPKGACKVP; also: GST-fusion peptide; listed as Homo sapiens)” the “interaction with Brk SH3 domain” value (Brk SH3 domain) was “weakly”.

With “K2: GST-fusion peptide, amino acids 108-123 of p27 (SEQ ID NO: 1) (DVSGSRPAAPLIGAPA; also: GST-fusion peptide; listed as Homo sapiens)” the “interaction with Brk SH3 domain” value (Brk SH3 domain) was “No SH3 domains interacted”.

For “K3: GST-fusion peptide, amino acids 182-197 of p27 (SEQ ID NO: 1) (GSVEQTPKKPGLRRRQ; also: GST-fusion peptide; listed as Homo sapiens)”, the “interaction with Brk SH3 domain” value (Brk SH3 domain) was “strongly”.

In the case of “SH3 domain of Brk: Brk SH3 domain displayed on phages (SEQ ID NO: 2)”, the Kd (full-length p27) is reported as 250 nM.
